Measured values published in patent US20160297891A1 (Zymeworks, published 2016).

Legend:
[1] = molecular target: T1, HER2 extracellular domain (soluble analyte in SPR) (human); assay: SPR, the reference itself
[2] = molecular target: T1, HER2 extracellular domain (soluble …); assay: SPR, standard deviation of KD
[3] = molecular target: T1, HER2 extracellular domain (soluble …); assay: SPR (Biacore T200), variant captured on anti-human Fc, Her2 injected, single cycle kinetics, 25 C

B1: v4182, monovalent (one-armed) anti-HER2 antibody with a Fab derived from pertuzumab on chain A (antibody, IgG1)
heavy: EVQLVESGGGLVQPGGSLRLSCAASGFTFTDYTMDWVRQAPGKGLEWVADVNPNSGGSIYNQRFKGRFTLSVDRSKNTLYLQMNSLRAEDTAVYYCARNLGPSFYFDYWGQGTLVTVSSASTKGPSVFPLAPSSKSTSGGTAALGCLVKDYFPEPVTVSWNSGALTSGVHTFPAVLQSSGLYSLSSVVTVPSSSLGTQTYICNVNHKPSNTKVDKKVEPKSCDKTHTCPPCPAPELLGGPSVFLFPPKPKDTLMISRTPEVTCVVVDVSHEDPEVKFNWYVDGVEVHNAKTKPREEQYNSTYRVVSVLTVLHQDWLNGKEYKCKVSNKALPAPIEKTISKAKGQPREPQVYVYPPSRDELTKNQVSLTCLVKGFYPSDIAVEWESNGQPENNYKTTPPVLDSDGSFALVSKLTVDKSRWQQGNVFSCSVMHEALHNHYTQKSLSLSPG
chain: not shown
light: not shown
notes: also called OA-pert
[1]
  KD_wt/KD_var: 1 fold
[2]
  STEDEV KD: 4.2 nM
[3]
  Kd: 14.9 nM
